{
  "source": "patent US20210292396A1",
  "test_in_all_cases": "cell-based or functional assay",
  "key": {"[1]": {"molecular_target": "Env of HIV isolate 00836-2.5 (clade C) (HIV)"}, "[2]": {"molecular_target": "Env of HIV isolate 0330.v4.c3 (clade A) (HIV)"}, "[3]": {"molecular_target": "Env of HIV isolate 191821.E6.1 (clade D) (HIV)"}, "[4]": {"molecular_target": "Env of HIV isolate 235-47 (clade AG) (HIV)"}, "[5]": {"molecular_target": "Env of HIV isolate 269-12 (clade AG) (HIV)"}, "[6]": {"molecular_target": "Env of HIV isolate 3365.v2.c20 (clade A) (HIV)"}, "[7]": {"molecular_target": "Env of HIV isolate 3817.v2.c59 (clade CD) (HIV)"}, "[8]": {"molecular_target": "Env of HIV isolate 398-F1.F6.20 (clade A) (HIV)"}, "[9]": {"molecular_target": "Env of HIV isolate 3988.25 (clade B) (HIV)"}, "[10]": {"molecular_target": "Env of HIV isolate 6405.v4.c34 (clade D) (HIV)"}, "[11]": {"molecular_target": "Env of HIV isolate 6540.v4.c1 (clade AC) (HIV)"}, "[12]": {"molecular_target": "Env of HIV isolate 7165.18 (clade B) (HIV)"}, "[13]": {"molecular_target": "Env of HIV isolate BG505.W6M.C2 (clade A) (HIV)"}, "[14]": {"molecular_target": "Env of HIV isolate BS208.B1 (clade A) (HIV)"}, "[15]": {"molecular_target": "Env of HIV isolate CAAN.A2 (clade B) (HIV)"}, "[16]": {"molecular_target": "Env of HIV isolate CH070.1 (clade BC) (HIV)"}, "[17]": {"molecular_target": "Env of HIV isolate CH119.10 (clade BC) (HIV)"}, "[18]": {"molecular_target": "Env of HIV isolate CM244.ec1 (clade AE) (HIV)"}, "[19]": {"molecular_target": "Env of HIV isolate CNE5 (clade AE) (HIV)"}, "[20]": {"molecular_target": "Env of HIV isolate CNE57 (clade B) (HIV)"}, "[21]": {"molecular_target": "Env of HIV isolate DU123.06 (clade C) (HIV)"}, "[22]": {"molecular_target": "Env of HIV isolate DU151.02 (clade C) (HIV)"}, "[23]": {"molecular_target": "Env of HIV isolate DU172.17 (clade C) (HIV)"}, "[24]": {"molecular_target": "Env of HIV isolate JRCSF.JB (clade B) (HIV)"}, "[25]": {"molecular_target": "Env of HIV isolate M02138 (clade AE) (HIV)"}, "[26]": {"molecular_target": "Env of HIV isolate P1981.C5.3 (clade G) (HIV)"}, "[27]": {"molecular_target": "Env of HIV isolate Q259.17 (clade A) (HIV)"}, "[28]": {"molecular_target": "Env of HIV isolate QH209.14M.A2 (clade A) (HIV)"}, "[29]": {"molecular_target": "Env of HIV isolate SS1196.01 (clade B) (HIV)"}, "[30]": {"molecular_target": "Env of HIV isolate T255-34 (clade AG) (HIV)"}, "[31]": {"molecular_target": "HIV Env of isolate 16055-2.3 (HIV)"}, "[32]": {"molecular_target": "HIV Env of isolate 16936-2.21 (HIV)"}, "[33]": {"molecular_target": "HIV Env of isolate 3168.v4.c10 (HIV)"}, "[34]": {"molecular_target": "HIV Env of isolate 398-F1.F6.20 (HIV)"}, "[35]": {"molecular_target": "HIV Env of isolate 6322.v4.c1 (HIV)"}, "[36]": {"molecular_target": "HIV Env of isolate 6631.v3.c10 (HIV)"}, "[37]": {"molecular_target": "HIV Env of isolate 7165.18 (HIV)"}, "[38]": {"molecular_target": "HIV Env of isolate BB201.B42 (HIV)"}, "[39]": {"molecular_target": "HIV Env of isolate BI369.9A (HIV)"}, "[40]": {"molecular_target": "HIV Env of isolate BR025.9 (HIV)"}, "[41]": {"molecular_target": "HIV Env of isolate CAP210.E8 (HIV)"}, "[42]": {"molecular_target": "HIV Env of isolate CNE12 (HIV)"}, "[43]": {"molecular_target": "HIV Env of isolate CNE20 (HIV)"}, "[44]": {"molecular_target": "HIV Env of isolate HO86.8 (HIV)"}, "[45]": {"molecular_target": "HIV Env of isolate MW965.26 (HIV)"}, "[46]": {"molecular_target": "HIV Env of isolate PVO.04 (HIV)"}, "[47]": {"molecular_target": "HIV Env of isolate R3265.c6 (HIV)"}, "[48]": {"molecular_target": "HIV Env of isolate SC422.8 (HIV)"}, "[49]": {"molecular_target": "HIV Env of isolate SS1196.01 (HIV)"}, "[50]": {"molecular_target": "HIV Env of isolate TV1.29 (HIV)"}, "[51]": {"molecular_target": "HIV Env of isolate UG024.2 (HIV)"}, "[52]": {"molecular_target": "HIV Env of isolate ZA012.29 (HIV)"}, "[53]": {"molecular_target": "HIV Env of isolate ZM109.4 (HIV)"}},
  "data": [
    {"substance": "PGT121 (antibody)", "values": [
      {"measurement": "IC50, pseudovirus neutralization", "setting": "[1]", "value": "> 50", "unit": "µg/mL"},
      {"measurement": "IC50, pseudovirus neutralization", "setting": "[2]", "value": 0.0597, "unit": "µg/mL"},
      {"measurement": "IC50, pseudovirus neutralization", "setting": "[3]", "value": "> 50", "unit": "µg/mL"},
      {"measurement": "IC50, pseudovirus neutralization", "setting": "[4]", "value": 0.132, "unit": "µg/mL"},
      {"measurement": "IC50, pseudovirus neutralization", "setting": "[5]", "value": 0.128, "unit": "µg/mL"},
      {"measurement": "IC50, pseudovirus neutralization", "setting": "[6]", "value": 0.112, "unit": "µg/mL"},
      {"measurement": "IC50, pseudovirus neutralization", "setting": "[7]", "value": 22.2, "unit": "µg/mL"},
      {"measurement": "IC50, pseudovirus neutralization", "setting": "[8]", "value": 0.0223, "unit": "µg/mL"},
      {"measurement": "IC50, pseudovirus neutralization", "setting": "[9]", "value": 0.0127, "unit": "µg/mL"},
      {"measurement": "IC50, pseudovirus neutralization", "setting": "[10]", "value": 0.042, "unit": "µg/mL"},
      {"measurement": "IC50, pseudovirus neutralization", "setting": "[11]", "value": "> 50", "unit": "µg/mL"},
      {"measurement": "IC50, pseudovirus neutralization", "setting": "[12]", "value": 0.0363, "unit": "µg/mL"},
      {"measurement": "IC50, pseudovirus neutralization", "setting": "[13]", "value": 0.0513, "unit": "µg/mL"},
      {"measurement": "IC50, pseudovirus neutralization", "setting": "[14]", "value": "> 50", "unit": "µg/mL"},
      {"measurement": "IC50, pseudovirus neutralization", "setting": "[15]", "value": 0.0193, "unit": "µg/mL"},
      {"measurement": "IC50, pseudovirus neutralization", "setting": "[16]", "value": 0.0137, "unit": "µg/mL"},
      {"measurement": "IC50, pseudovirus neutralization", "setting": "[17]", "value": 0.0313, "unit": "µg/mL"},
      {"measurement": "IC50, pseudovirus neutralization", "setting": "[18]", "value": "> 50", "unit": "µg/mL"},
      {"measurement": "IC50, pseudovirus neutralization", "setting": "[19]", "value": "> 50", "unit": "µg/mL"},
      {"measurement": "IC50, pseudovirus neutralization", "setting": "[20]", "value": 0.0283, "unit": "µg/mL"},
      {"measurement": "IC50, pseudovirus neutralization", "setting": "[21]", "value": 0.0477, "unit": "µg/mL"},
      {"measurement": "IC50, pseudovirus neutralization", "setting": "[22]", "value": 0.0117, "unit": "µg/mL"},
      {"measurement": "IC50, pseudovirus neutralization", "setting": "[23]", "value": 0.065, "unit": "µg/mL"},
      {"measurement": "IC50, pseudovirus neutralization", "setting": "[24]", "value": 0.0563, "unit": "µg/mL"},
      {"measurement": "IC50, pseudovirus neutralization", "setting": "[25]", "value": "> 50", "unit": "µg/mL"},
      {"measurement": "IC50, pseudovirus neutralization", "setting": "[26]", "value": 0.007, "unit": "µg/mL"},
      {"measurement": "IC50, pseudovirus neutralization", "setting": "[27]", "value": "> 50", "unit": "µg/mL"},
      {"measurement": "IC50, pseudovirus neutralization", "setting": "[28]", "value": "> 50", "unit": "µg/mL"},
      {"measurement": "IC50, pseudovirus neutralization", "setting": "[29]", "value": 0.0123, "unit": "µg/mL"},
      {"measurement": "IC50, pseudovirus neutralization", "setting": "[30]", "value": 2.04, "unit": "µg/mL"},
      {"measurement": "IC80, pseudovirus neutralization", "setting": "[31]", "value": 2.78, "unit": "µg/mL"},
      {"measurement": "IC80, pseudovirus neutralization", "setting": "[32]", "value": 0.024, "unit": "µg/mL"},
      {"measurement": "IC80, pseudovirus neutralization", "setting": "[33]", "value": 1.43, "unit": "µg/mL"},
      {"measurement": "IC80", "setting": "[34]", "value": 0.0527, "unit": "µg/mL"},
      {"measurement": "IC80, pseudovirus neutralization", "setting": "[35]", "value": "> 50", "unit": "µg/mL"},
      {"measurement": "IC80, pseudovirus neutralization", "setting": "[36]", "value": "> 50", "unit": "µg/mL"},
      {"measurement": "IC80", "setting": "[37]", "value": 0.103, "unit": "µg/mL"},
      {"measurement": "IC80", "setting": "[38]", "value": 0.0243, "unit": "µg/mL"},
      {"measurement": "IC80", "setting": "[39]", "value": 0.085, "unit": "µg/mL"},
      {"measurement": "IC80, pseudovirus neutralization", "setting": "[40]", "value": 0.0253, "unit": "µg/mL"},
      {"measurement": "IC80, pseudovirus neutralization", "setting": "[41]", "value": "> 50", "unit": "µg/mL"},
      {"measurement": "IC80", "setting": "[42]", "value": 0.0347, "unit": "µg/mL"},
      {"measurement": "IC80, pseudovirus neutralization", "setting": "[43]", "value": 0.0127, "unit": "µg/mL"},
      {"measurement": "IC80", "setting": "[44]", "value": "> 50", "unit": "µg/mL"},
      {"measurement": "IC80, pseudovirus neutralization", "setting": "[45]", "value": 0.093, "unit": "µg/mL"},
      {"measurement": "IC80", "setting": "[46]", "value": 0.498, "unit": "µg/mL"},
      {"measurement": "IC80", "setting": "[47]", "value": "> 50", "unit": "µg/mL"},
      {"measurement": "IC80", "setting": "[48]", "value": 0.3, "unit": "µg/mL"},
      {"measurement": "IC80", "setting": "[49]", "value": 0.0307, "unit": "µg/mL"},
      {"measurement": "IC80, pseudovirus neutralization", "setting": "[50]", "value": 0.438, "unit": "µg/mL"},
      {"measurement": "IC80, pseudovirus neutralization", "setting": "[51]", "value": "> 50", "unit": "µg/mL"},
      {"measurement": "IC80, pseudovirus neutralization", "setting": "[52]", "value": 0.0347, "unit": "µg/mL"},
      {"measurement": "IC80, pseudovirus neutralization", "setting": "[53]", "value": "> 50", "unit": "µg/mL"}
    ]}
  ]
}
